In the Immune Epitope Database (IEDB):

Columns and labels:
[1] = target: HLA-B*51:01; experiment: IEDB peptide-MHC binding, purified MHC/direct/fluorescence; filed as Kd, often an IC50 or EC50 that approximates it; ≥ and ≤ were set here for values at or beyond the usual limits of such assays
[2] = target: HLA-B*07:02; experiment: as above
[3] = target: HLA-B*39:01; experiment: as above; conditions: source organism: Influenza A virus H3N2
[4] = target: HLA-B*53:01; experiment: IEDB peptide-MHC binding, purified MHC/competitive/radioactivity; filed as Kd, often an IC50 or EC50 that approximates it; ≥ and ≤ were set here for values at or beyond the usual limits of such assays
[5] = target: HLA-A*02:02; experiment: as above
[6] = target: HLA-B*51:01; experiment: as above
[7] = target: HLA-A*02:03; experiment: as above
[8] = target: HLA-B*08:01; experiment: as above
[9] = target: HLA-B*35:01; experiment: as above
[10] = target: HLA-A*02:01; experiment: as above
[11] = target: HLA-A*68:02; experiment: as above
[12] = target: HLA-B*07:02; experiment: as above
[13] = target: HLA-A*03:01; experiment: as above
[14] = target: HLA-A*11:01; experiment: as above
[15] = target: HLA-A*01:01; experiment: as above; conditions: source organism: Hepacivirus hominis
[16] = target: HLA-A*02:06; experiment: as above
[17] = target: HLA-A*33:01; experiment: as above
[18] = target: HLA-A*31:01; experiment: as above
[19] = target: HLA-A*68:01; experiment: as above
[20] = target: HLA-B*54:01; experiment: as above
[21] = target: HLA-B*15:17; experiment: IEDB peptide-MHC binding, purified MHC/competitive/fluorescence; filed as Kd, often an IC50 or EC50 that approximates it; ≥ and ≤ were set here for values at or beyond the usual limits of such assays
[22] = target: HLA-B*08:01; experiment: IEDB peptide-MHC binding, purified MHC/direct/fluorescence; filed as Kd, often an IC50 or EC50 that approximates it; ≥ and ≤ were set here for values at or beyond the usual limits of such assays
[23] = target: HLA-A*02:01; experiment: as above
[24] = target: HLA-B*15:01; experiment: as above; conditions: source organism: Bacillus licheniformis
[25] = target: HLA-B*58:01; experiment: as above
[26] = target: HLA-A*03:01; experiment: as above
[27] = target: HLA-A*69:01; experiment: as above
[28] = target: HLA-B*40:01; experiment: as above
[29] = target: HLA-A*11:01; experiment: as above
[30] = target: HLA-A*01:01; experiment: as above
[31] = target: HLA-A*26:01; experiment: as above; conditions: source organism: Bacillus licheniformis
[32] = target: HLA-B*27:05; experiment: as above
[33] = target: HLA-A*31:01; experiment: as above
[34] = target: HLA-A*29:02; experiment: as above
[35] = target: HLA-B*48:01; experiment: as above; conditions: source organism: Corynebacterium diphtheriae
[36] = target: HLA-B*57:01; experiment: as above
[37] = target: HLA-B*46:01; experiment: as above
[38] = target: HLA-B*44:02; experiment: as above; conditions: source organism: Corynebacterium diphtheriae
[39] = target: HLA-B*51:01; experiment: IEDB peptide-MHC binding, purified MHC/competitive/fluorescence; filed as Kd, often an IC50 or EC50 that approximates it; ≥ and ≤ were set here for values at or beyond the usual limits of such assays; conditions: source organism: Orthohantavirus sinnombreense
[40] = target: HLA-A*26:01; experiment: as above; conditions: source organism: Orthohantavirus sinnombreense
[41] = target: HLA-B*27:03; experiment: as above; conditions: source organism: Orthohantavirus sinnombreense
[42] = target: HLA-A*68:02; experiment: IEDB peptide-MHC binding, purified MHC/direct/fluorescence; filed as Kd, often an IC50 or EC50 that approximates it; ≥ and ≤ were set here for values at or beyond the usual limits of such assays; conditions: source organism: Convict Creek 107 virus
[43] = target: HLA-B*18:01; experiment: as above; conditions: source organism: Orthohantavirus andesense
[44] = target: HLA-A*24:03; experiment: as above; conditions: source organism: Convict Creek 107 virus
[45] = source organism: Giardia lamblia ATCC 50803
[46] = source organism: Hepacivirus hominis
[47] = source organism: Vaccinia virus WR
[48] = source organism: Bacillus licheniformis
[49] = source organism: Corynebacterium diphtheriae
[50] = source organism: Orthohantavirus andesense

## AVSRGTAKL
[1]; source organism: Alkhumra hemorrhagic fever virus
  Kd: ≥ 20 µM

## EALAMCLPY
[1]; [45]
  Kd: ≥ 20 µM
[2]; [45]
  Kd: 5.2 µM

## FHGAKEIAL
[3]
  Kd: 0.175 µM

## HSKRKCDEL
[4]; [46]
  Kd: ≥ 30.1 µM
[5]; [46]
  Kd: ≥ 43.4 µM
[6]; [46]
  Kd: ≥ 46.5 µM
[7]; [46]
  Kd: 12.4 µM
[8]; [46]
  Kd: ≥ 77.6 µM
[9]; [46]
  Kd: ≥ 77.4 µM
[10]; [46]
  Kd: ≥ 33.9 µM
[11]; [46]
  Kd: ≥ 69.8 µM
[12]; [46]
  Kd: ≥ 59.8 µM
[13]; [46]
  Kd: ≥ 78 µM
[14]; [46]
  Kd: ≥ 77.9 µM
[15]
  Kd: ≥ 59.8 µM
[16]; [46]
  Kd: 1.15 µM
[17]; [46]
  Kd: ≥ 77.7 µM
[18]; [46]
  Kd: ≥ 77.9 µM
[19]; [46]
  Kd: ≥ 77.7 µM
[20]; [46]
  Kd: ≥ 36.1 µM

## IVLFQRFLR
[4]; [47]
  Kd: ≥ 78.2 µM
[5]; [47]
  Kd: ≥ 54.2 µM
[6]; [47]
  Kd: ≥ 77.5 µM
[7]; [47]
  Kd: ≥ 48.1 µM
[9]; [47]
  Kd: ≥ 21.9 µM
[10]; [47]
  Kd: ≥ 78.1 µM
[11]; [47]
  Kd: ≥ 51.9 µM
[12]; [47]
  Kd: ≥ 77.5 µM
[13]; [47]
  Kd: 0.242 µM
[14]; [47]
  Kd: 0.0134 µM
[16]; [47]
  Kd: ≥ 47.7 µM
[17]; [47]
  Kd: 0.00238 µM
[18]; [47]
  Kd: 0.000185 µM
[19]; [47]
  Kd: 0.00124 µM
[20]; [47]
  Kd: ≥ 78.1 µM

## KTIECSKEL
[21]; [48]
  Kd: 0.0099 µM
[22]; [48]
  Kd: ≥ 20 µM
[23]; [48]
  Kd: 0.235 µM
[24]
  Kd: 0.468 µM
[25]; [48]
  Kd: 0.279 µM
[2]; [48]
  Kd: ≥ 20 µM
[26]; [48]
  Kd: ≥ 20 µM
[27]; [48]
  Kd: ≥ 20 µM
[28]; [48]
  Kd: ≥ 20 µM
[29]; [48]
  Kd: ≥ 20 µM
[30]; [48]
  Kd: ≥ 20 µM
[31]
  Kd: ≥ 20 µM
[32]; [48]
  Kd: ≥ 20 µM
[33]; [48]
  Kd: 5.6 µM

## MPVMKRYSA
[1]; source organism: dengue virus type 4
  Kd: ≥ 20 µM
[8]; source organism: Dengue virus 4 Philippines/H241/1956
  Kd: 0.00838 µM

## VERRLVKVL
[34]; [49]
  Kd: ≥ 20 µM
[35]
  Kd: ≥ 20 µM
[22]; [49]
  Kd: 7 µM
[23]; [49]
  Kd: ≥ 20 µM
[36]; [49]
  Kd: ≥ 20 µM
[25]; [49]
  Kd: ≥ 20 µM
[2]; [49]
  Kd: ≥ 20 µM
[26]; [49]
  Kd: ≥ 20 µM
[29]; [49]
  Kd: ≥ 20 µM
[37]; [49]
  Kd: ≥ 20 µM
[30]; [49]
  Kd: ≥ 20 µM
[32]; [49]
  Kd: ≥ 20 µM
[33]; [49]
  Kd: ≥ 20 µM
[38]
  Kd: ≥ 20 µM

## YLQAKSQVL
[39]
  Kd: ≥ 20 µM
[21]; source organism: Orthohantavirus sinnombreense
  Kd: ≥ 20 µM
[40]
  Kd: ≥ 20 µM
[41]
  Kd: ≥ 20 µM
[34]; [50]
  Kd: ≥ 20 µM
[22]; [50]
  Kd: 0.471 µM
[42]
  Kd: ≥ 20 µM
[43]
  Kd: ≥ 20 µM
[36]; [50]
  Kd: ≥ 20 µM
[25]; [50]
  Kd: ≥ 20 µM
[26]; [50]
  Kd: ≥ 20 µM
[27]; [50]
  Kd: ≥ 20 µM
[28]; [50]
  Kd: ≥ 20 µM
[29]; [50]
  Kd: ≥ 20 µM
[37]; [50]
  Kd: ≥ 20 µM
[30]; [50]
  Kd: ≥ 20 µM
[32]; [50]
  Kd: ≥ 20 µM
[33]; [50]
  Kd: ≥ 20 µM
[44]
  Kd: ≥ 20 µM
